These results are taken from article PMC7921410, “Structure of mammalian Mediator complex reveals Tail module architecture and interaction with a conserved core” (Nature Communications, 2021).

This test concerns the target T1, MED16 (mouse (Mus musculus; endogenous in CH12), UniProt Q6PGF3 1-828).
T1 construct: MED16, Mus musculus, endogenous lower Tail subunit of Mediator; source: endogenous, CH12 mouse B lymphoma nuclear extract; immunopurified as part of Mediator (FLAG M2 agarose, FLAG peptide elution)
T1 sequence (looked up): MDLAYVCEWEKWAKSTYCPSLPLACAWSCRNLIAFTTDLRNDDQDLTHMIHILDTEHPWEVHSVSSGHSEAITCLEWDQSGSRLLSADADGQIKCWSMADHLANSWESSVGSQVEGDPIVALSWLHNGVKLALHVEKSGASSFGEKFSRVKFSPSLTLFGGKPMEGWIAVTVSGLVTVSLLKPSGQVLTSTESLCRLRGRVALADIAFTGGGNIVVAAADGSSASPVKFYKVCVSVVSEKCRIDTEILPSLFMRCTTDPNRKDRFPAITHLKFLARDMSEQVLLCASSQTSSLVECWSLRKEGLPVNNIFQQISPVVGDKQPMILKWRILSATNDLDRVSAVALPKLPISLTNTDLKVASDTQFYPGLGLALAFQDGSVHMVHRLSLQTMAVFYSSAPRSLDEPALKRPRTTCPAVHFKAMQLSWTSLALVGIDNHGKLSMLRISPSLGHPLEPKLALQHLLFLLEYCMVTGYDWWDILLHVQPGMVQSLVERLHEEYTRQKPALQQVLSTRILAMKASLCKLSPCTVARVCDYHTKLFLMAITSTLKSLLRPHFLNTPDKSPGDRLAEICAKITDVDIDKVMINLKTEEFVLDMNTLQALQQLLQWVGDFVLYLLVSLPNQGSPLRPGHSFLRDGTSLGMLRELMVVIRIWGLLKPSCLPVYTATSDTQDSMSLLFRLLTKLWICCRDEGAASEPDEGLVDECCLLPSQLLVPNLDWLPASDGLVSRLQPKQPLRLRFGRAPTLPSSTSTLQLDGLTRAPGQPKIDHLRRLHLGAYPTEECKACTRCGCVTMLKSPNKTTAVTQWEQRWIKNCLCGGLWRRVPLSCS
In words: cryo-EM structure; endogenous mouse Mediator immunopurified from CH12 nuclear extract through 3×FLAG-MED19 or 3×FLAG-MED25; eluted in 50 mM HEPES pH 7.9, 100 mM KCl, 5% glycerol, 1 mM EDTA, 0.005% NP-40; map at 4.0 Å overall, focused refinement of the MED1 and knob/hook ends (6-10 Å). The note with it: both partners purified.

B1: MED15 (natural protein, mouse (Mus musculus; endogenous in CH12), UniProt Q924H2 1-789, looked up)
chain: MDVSGQETDWRSAAFRQKLVSQIEDAMRKAGVAHSKSSKDMESHVFLKAKTRDEYLSLVARLIIHFRDIHNKKSQASVSDPMNALQSLTGGPTPGAAGIGMPPRGPGQSLGGMGGLGAMGQPLPLSGQPPPGTSGMAPHGMAVVSTATPQTQLQLQQVALQQQQQQQQQQQFQQQQAALQQQQQQQQQQQQQQQFQAQQNAMQQQFQAVVQQQQLQQQQQQQHLIKLHHQSQQQQIQQQQLQRMAQLQLQQQQQQQQQQALQAQPPMQQPSMQQPQPPPSQALPQQLSQLHHPQHHQPPPQAQQSPIAQNQPPQIPPQSQSQPLVSQAQALPGPMLYAAQQQLKFVRAPMVVQQPQVQPQVQQVQPQVQPQAAVQAAQSAQMVAPGVQMIAEALAQGGMHVRARFPPTSTMSAGPSSSISLGGQPTTQVSQSSLTMLSSPSPGQQVQTPQSMPPPPQPSPQPGSQPNSNVSSGPAPSPSSFLPSPSPQPSQSPVTARTPQNFSVPSPGPLNTPVNPSSVMSPAGSSQAEEQQYLDKLKQLSKYIEPLRRMINKIDKNEDRKKDLSKMKSLLDILTDPSKRCPLKTLQKCEIALEKLKNDMAVPTPPPPPVLPTKQQDLCQPLLDAVLANIRSPVFNHSLYRTFVPAMMAIHGPPIVSPVVCSRKRRFEEDERQSIPNVLQGEVARLDPKFLVNLDPSHCSNNGTVHLICKLDDKDLPSVPPLELSVPADYPAQSPMWIDRQWQYDANPFLQSVHRCMTSRLLQLPDKHSVTALLNTWAQSIHQACLSAA
notes: MED15, Mus musculus, endogenous lower Tail subunit of Mediator; only the C-terminal portion (from residue 620) is seen in the map; source: endogenous, CH12 mouse B lymphoma nuclear extract; immunopurified as part of Mediator (FLAG M2 agarose, FLAG peptide elution)
For the molecule B1, the binding result was “binds”.

B2: MED25 (natural protein, mouse (Mus musculus; endogenous in CH12), UniProt Q8VCB2 1-745, looked up)
chain: MVPGSEGPARAGGLVADVVFVIEGTANLGPYFEELRKHYLLPAIEYFNGGPPAETDFGGDYGGTQYSLVVFNTVDCAPESYVQCHAPTSSAYEFVTWLDGIKFMGGGGESCSLIAEGLSTALQLFDDFKKMREQIGQTHRVCLLICNSPPYLLPAVESTTYSGCTTESLVQKIGERGIHFSIVSPRKLPALRLLFEKAAPPALLEPLQQPADVSQDPRHMVLVRGLVLPVGGSSTSGSLQTKQAVPLPPAPASAATLSAAPPQALPPVPPQYQVPGNLSAAQVAAQNAVEAAKSQKAGLGPRFSPINPLQQAAPGVGPPFSQAPAPPLAPVPPGAPKPPPASQPSLVSTVAPGPVLAAPAQPGAPSLAGTVTPGGVNGPSAAQLGGPALGGQQSVSNKLLAWSGVLEWQEKPKPASVDANTKLTRSLPCQVYVNHGENLKTEQWPQKLIMQLIPQQLLTTLGPLFRNSRMVQFHFTNKDLESLKGLYRIMGNGFAGCVHFPHTAPCEVRVLMLLYSSKKKIFMGLIPYDQSGFVNGIRQVITNHKQVQQQKLEQQRGMGAQQAPPVLGPILEEQARPPQNLLQLRAPQPQPQGAVGASAATGQPQPQGATQAPTGAPQGPPGAAPGPPPSGPILRPQNPGANPQLRSLLLNPAPPQTGVPPPQASLHHLQPPGAPTLLPPHQSMGQPQLGPQLLHPPPAQSWPTQLPQRAPLPGQMLLSGGPRGPVPQPGLQPSVMEDDILMDLI
notes: MED25, Mus musculus, endogenous lower Tail subunit of Mediator; only the N-terminal von Willebrand domain (aa 15-216) is seen in the map; The 3×FLAG tag stands on MED25 only in the MED25-FLAG cell line; in the MED19-FLAG line MED25 is untagged; Images from the datasets were combined for the final map; also called MED25-FLAG; source: endogenous, CH12 mouse B lymphoma nuclear extract; …
With B2, the binding result is reported as “binds”.
